Reference: publication doi:10.1101/517771

Target: FLAG-BLM (Bloom's Syndrome helicase) (human) (UniProt P54132)
UniProt P54132, sequence (P54132 whole entry): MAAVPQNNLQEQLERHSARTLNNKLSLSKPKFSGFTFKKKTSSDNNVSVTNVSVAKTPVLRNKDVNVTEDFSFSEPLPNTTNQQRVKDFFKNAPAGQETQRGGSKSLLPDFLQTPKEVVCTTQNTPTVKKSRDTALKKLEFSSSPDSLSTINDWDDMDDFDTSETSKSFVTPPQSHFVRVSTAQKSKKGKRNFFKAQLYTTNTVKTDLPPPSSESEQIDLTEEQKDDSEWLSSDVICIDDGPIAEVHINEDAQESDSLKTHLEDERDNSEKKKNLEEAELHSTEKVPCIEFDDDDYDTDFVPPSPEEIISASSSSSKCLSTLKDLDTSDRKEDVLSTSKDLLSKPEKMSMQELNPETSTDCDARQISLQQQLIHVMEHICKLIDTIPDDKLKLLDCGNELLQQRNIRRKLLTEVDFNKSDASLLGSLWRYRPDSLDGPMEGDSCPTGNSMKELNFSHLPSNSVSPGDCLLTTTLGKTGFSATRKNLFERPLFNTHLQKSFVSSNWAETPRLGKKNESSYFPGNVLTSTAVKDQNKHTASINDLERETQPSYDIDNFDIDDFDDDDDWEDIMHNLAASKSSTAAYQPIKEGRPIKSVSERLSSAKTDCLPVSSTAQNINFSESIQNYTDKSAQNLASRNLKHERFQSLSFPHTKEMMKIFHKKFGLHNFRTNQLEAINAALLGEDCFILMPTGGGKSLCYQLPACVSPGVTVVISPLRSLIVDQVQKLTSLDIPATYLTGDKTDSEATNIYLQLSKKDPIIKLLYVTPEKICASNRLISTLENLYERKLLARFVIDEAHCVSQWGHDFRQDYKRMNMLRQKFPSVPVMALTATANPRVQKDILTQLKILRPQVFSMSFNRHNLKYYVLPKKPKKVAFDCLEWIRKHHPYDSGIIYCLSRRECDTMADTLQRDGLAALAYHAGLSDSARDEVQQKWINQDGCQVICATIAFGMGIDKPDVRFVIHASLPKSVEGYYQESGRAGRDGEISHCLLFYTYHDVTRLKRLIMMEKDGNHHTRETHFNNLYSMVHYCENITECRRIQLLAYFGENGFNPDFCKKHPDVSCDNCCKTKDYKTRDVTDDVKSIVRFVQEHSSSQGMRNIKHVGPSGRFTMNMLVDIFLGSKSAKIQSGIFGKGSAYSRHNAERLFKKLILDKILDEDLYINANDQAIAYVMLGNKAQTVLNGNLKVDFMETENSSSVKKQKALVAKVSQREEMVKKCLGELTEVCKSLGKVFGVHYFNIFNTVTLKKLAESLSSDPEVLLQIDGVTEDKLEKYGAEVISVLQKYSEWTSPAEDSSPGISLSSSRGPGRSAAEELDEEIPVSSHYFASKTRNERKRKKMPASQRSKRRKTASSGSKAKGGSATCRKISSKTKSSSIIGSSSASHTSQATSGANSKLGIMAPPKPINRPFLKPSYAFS

Substance: phosphorylated human RPA (pRPA) (from UniProt P27694 1-616; P15927 1-270) (complex)
- fold decrease in BLM/EXO1 resection processivity after addition of pRPA: 3 fold
- fraction of BLM/DNA2 molecules that stopped resecting DNA upon addition of pRPA: 30%
